Tested on: peptide library, one residue held at a place counted from the Y acceptor
Experiment: relative phosphorylation of the sub-library (ratio to the mean residue at this position); higher = residue favoured
Procedure, shortened: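 Every value reflects phosphorylation relative to the mean randomized residue. The sum of the 18 randomized residues, or 16 in the Ser/Thr-free library, served to normalize intensities at each position, which were then multiplied by that number. Intensities came from phosphorimaging with ImageQuant of biotinylated Tyr-centred peptides captured on streptavidin membranes after 90 min with purified recombinant kinases and 50 μM ATP plus γ-32P-ATP.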

NTRK3, construct: aa510-end, human, sequence (Q16288 510-839, looked up): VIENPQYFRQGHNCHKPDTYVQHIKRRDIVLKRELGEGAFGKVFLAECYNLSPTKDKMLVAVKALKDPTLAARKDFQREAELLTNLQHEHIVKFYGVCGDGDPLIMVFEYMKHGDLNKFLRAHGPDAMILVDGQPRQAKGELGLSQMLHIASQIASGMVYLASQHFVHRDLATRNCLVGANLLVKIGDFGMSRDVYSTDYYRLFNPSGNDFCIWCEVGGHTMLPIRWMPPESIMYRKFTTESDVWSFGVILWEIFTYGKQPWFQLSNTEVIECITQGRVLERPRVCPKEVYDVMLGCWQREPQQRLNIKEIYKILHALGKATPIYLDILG
NTRK2, construct: aa455-end, human, sequence (Q16620 455-822, looked up): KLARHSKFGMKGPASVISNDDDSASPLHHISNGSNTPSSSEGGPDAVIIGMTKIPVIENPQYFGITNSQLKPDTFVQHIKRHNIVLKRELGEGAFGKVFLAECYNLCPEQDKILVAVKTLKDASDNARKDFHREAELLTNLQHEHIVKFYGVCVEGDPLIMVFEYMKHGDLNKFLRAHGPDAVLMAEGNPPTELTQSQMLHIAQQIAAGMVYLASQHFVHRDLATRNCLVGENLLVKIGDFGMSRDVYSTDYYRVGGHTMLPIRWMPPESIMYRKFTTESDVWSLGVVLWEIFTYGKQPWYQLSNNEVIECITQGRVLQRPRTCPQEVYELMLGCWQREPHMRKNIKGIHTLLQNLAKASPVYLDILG

NTRK2, construct: aa455-end, human (from UniProt Q16620)
relative phosphorylation
Details	at +1	at +2	at +3	at +4	at +5	at -1	at -2	at -3	at -4	at -5
A fixed	1.42	0.697	0.136	0.894	0.979	0.684	0.962	0.876	0.971	0.87
D fixed	0.407	0.696	0.42	0.788	1.01	2.06	1.2	1.25	1.11	1.21
E fixed	0.546	0.786	0.308	0.894	0.831	0.84	1.28	1.36	1.33	1.1
F fixed	1.81	1.35	1.88	1.09	1.16	1.12	0.959	1.15	1.32	1.06
G fixed	0.747	0.491	0.569	1.18	1.05	0.45	1.02	0.864	0.996	0.954
H fixed	1.23	0.808	0.871	1.11	1.01	1.36	1.13	1.19	1.05	1.09
I fixed	1.58	1.27	2.41	0.847	0.742	1.31	0.745	0.661	0.825	0.894
K fixed	0.257	0.893	0.387	0.97	0.979	0.259	0.841	0.732	0.752	1.05
L fixed	1.05	1.1	2.12	0.898	0.989	1.38	1.03	0.878	0.921	0.923
M fixed	1.61	1.17	1.63	1.02	0.922	0.958	0.809	0.982	0.82	0.979
N fixed	0.37	0.919	0.467	0.774	0.928	2.13	1.22	1.26	0.921	1.13
P fixed	0.261	0.723	0.785	1.06	1.23	0.772	0.886	0.789	1.1	0.884
Q fixed	0.811	0.927	0.546	0.993	0.912	0.907	1.08	0.964	1.12	1.09
R fixed	0.266	1.16	0.65	0.997	1.03	0.258	0.877	0.785	0.84	1.06
S fixed	0.824	0.914	0.728	0.965	1.06	0.713	1.15	1.11	0.774	0.872
T fixed	0.776	0.897	0.702	0.838	0.914	0.805	0.888	0.93	0.635	0.776
V fixed	2.18	1.24	1.69	0.911	0.83	1.17	0.802	0.769	0.81	0.806
W fixed	1.85	1.95	1.72	1.76	1.42	0.822	1.11	1.46	1.71	1.25
pThr fixed	1.17	0.567	0.302	0.689	0.807	0.824	0.828	0.83	0.932	0.913
pTyr fixed	1.77	1.3	0.567	1.03	0.776	3.47	1.13	1.22	1.26	0.986

NTRK3, construct: aa510-end, human (from UniProt Q16288)
relative phosphorylation
Details	at +1	at +2	at +3	at +4	at +5	at -1	at -2	at -3	at -4	at -5
A fixed	1.69	0.892	0.734	0.952	1.02	0.783	1.09	0.974	1.11	1.07
D fixed	0.49	0.785	0.467	0.945	0.698	2.14	1.23	1.2	1.15	1.18
E fixed	0.8	1.08	0.378	1.29	0.752	1.3	1.51	1.47	1.61	1.17
F fixed	1.63	1.19	1.77	1.06	1.2	0.893	0.809	1.08	1.33	0.973
G fixed	0.753	0.459	0.63	1.37	1.12	0.495	1.19	1.08	1.22	1.35
H fixed	1.43	0.887	0.884	1.15	1.21	1.47	1.1	1.26	0.913	0.977
I fixed	1.77	1.04	2.41	0.792	0.939	1.38	0.831	0.755	0.902	0.965
K fixed	0.14	0.714	0.269	0.674	0.867	0.149	0.635	0.559	0.657	0.717
L fixed	0.821	1.09	2.05	0.72	1	1.24	0.776	0.724	0.961	0.986
M fixed	1.53	1.08	1.55	1.11	0.978	0.745	0.654	0.775	0.753	1.02
N fixed	0.322	1.11	0.403	0.855	0.687	2.5	1.17	1.41	0.809	1.22
P fixed	0.269	0.874	0.906	1.63	1.6	1.11	1.12	0.994	1.14	1.18
Q fixed	0.686	1.02	0.485	0.908	0.702	0.756	1.11	0.791	1.01	0.943
R fixed	0.173	1.05	0.375	0.821	0.975	0.196	0.731	0.682	0.641	0.87
S fixed	0.83	1.02	0.77	0.869	0.961	0.701	1.2	1.14	0.748	0.814
T fixed	0.871	0.983	0.741	0.862	0.919	0.784	1	1.04	0.684	0.88
V fixed	1.95	0.976	1.64	0.786	0.807	0.872	0.87	0.738	0.823	0.734
W fixed	1.85	1.76	1.54	1.21	1.55	0.48	0.989	1.32	1.53	0.951
pThr fixed	1.61	0.745	0.374	0.914	0.625	0.999	1	0.982	0.995	0.973
pTyr fixed	2.92	1.81	0.837	1.17	0.96	7.29	1.63	1.86	1.64	1.2
